# B1: TPP-18068 (antibody, mouse IgG1)
# heavy: EVQLLESGGGLVQPGGSLRLSCAASGFTFSSYGMHWVRQAPGKGLEWVSVISYDGSYKYYADSVKGRFTISRDNSKNTLYLQMNSLRAEDTAVYYCAAGVPDYWGQGTLVTVSSAKTTPPSVYPLAPGSAAQTNSMVTLGCLVKGYFPEPVTVTWNSGSLSSGVHTFPAVLQSDLYTLSSSVTVPSSTWPSETVTCNVAHPASSTKVDKKIVPRDCGCKPCICTVPEVSSVFIFPPKPKDVLTITLTPKVTCVVVDISKDDPEVQFSWFVDDVEVHTAQTQPREEQFNSTFRSVSELPIMHQDWLNGKEFKCRVNSAAFPAPIEKTISKTKGRPKAPQVYTIPPPKEQMAKDKVSLTCMITDFFPEDITVEWQWNGQPAENYKNTQPIMDTDGSYFVYSKLNVQKSNWEAGNTFTCSVLHEGLHNHHTEKSLSHSPGK
# light: QSVLTQPPSASGTPGQRVTISCTGSSSNIGAGYDVHWYQQLPGTAPKLLIYSNNERPSGVPDRFSGSKSGTSASLAISGLRSEDEADYYCAAWDDSLNGPVFGGGTKLTVLGQPKSSPSVTLFPPSSEELETNKATLVCTITDFYPGVVTVDWKVDGTPVTQGMETTQPSKQSNNKYMASSYLTLTARAWERHSSYSCQVTHEGHTVEKSLSRADCS
# notes: mIgG1, Lambda
# B2: TPP-18068 (antibody, mouse IgG1)
# heavy: EVQLLESGGGLVQPGGSLRLSCAASGFTFSSYGMHWVRQAPGKGLEWVSVISYDGSYKYYADSVKGRFTISRDNSKNTLYLQMNSLRAEDTAVYYCAAGVPDYWGQGTLVTVSSAKTTPPSVYPLAPGSAAQTNSMVTLGCLVKGYFPEPVTVTWNSGSLSSGVHTFPAVLQSDLYTLSSSVTVPSSTWPSETVTCNVAHPASSTKVDKKIVPRDCGCKPCICTVPEVSSVFIFPPKPKDVLTITLTPKVTCVVVDISKDDPEVQFSWFVDDVEVHTAQTQPREEQFNSTFRSVSELPIMHQDWLNGKEFKCRVNSAAFPAPIEKTISKTKGRPKAPQVYTIPPPKEQMAKDKVSLTCMITDFFPEDITVEWQWNGQPAENYKNTQPIMDTDGSYFVYSKLNVQKSNWEAGNTFTCSVLHEGLHNHHTEKSLSHSPGK
# light: QSVLTQPPSASGTPGQRVTISCTGSSSNIGAGYDVHWYQQLPGTAPKLLIYSNNERPSGVPDRFSGSKSGTSASLAISGLRSEDEADYYCAAWDDSLNGPVFGGGTKLTVLGQPKSSPSVTLFPPSSEELETNKATLVCTITDFYPGVVTVDWKVDGTPVTQGMETTQPSKQSNNKYMASSYLTLTARAWERHSSYSCQVTHEGHTVEKSLSRADCS
# notes: mIgG1, Lambda
# B3: TPP-18087 (antibody, mouse IgG1, V domains shown)
# VH: EVQLLESGGGLVQPGGSLRLSCAASGFTFSHYDMNWLRQAPGKGLEWVGVISYDGSNKFYADFVKGRFTISRDNSKNTLYLQMNSLRAEDTAVYYCARTPGSHFDYWGQGTLVTVSS
# VL: QSVLTQPPSASGTPGQRVTISCSGSSSNIGNNAVNWYQQLPGTAPKLLIYYDDLLPSGVPDRFSGSKSGTSASLAISGLRSEDEADYYCSAWDDSLNGVVFGGGTKLTVLG
# notes: mIgG1, Lambda
# B4: TPP-29603 (bispecific antibody, IgG1)
# chain 1: QVQLVESGGGVVQPGRSLRLSCAASGFTFSHYDMHWVRQAPGKGLEWVAVISYHGSVKFYADSVKGRFTISRDNSKNTLYLQMNSLRAEDTAVYYCARTPGFHFDYWGQGTLVTVSSGGGGSGGGGSGGGGSQSVLTQPPSASGTPGQRVTISCSGSSSNIGSNYVSWYQQLPGTAPKLLIYYDDLRPSGVPDRFSGSKSGTSASLAISGLRSEDEADYYCSAWDDSLSGVVFGGGTKLTVLGGGGSGGGGSGGGGSGVECPPCPAPPVAGPSVFIFPPKPKDVLTITLTPKVTCVVVDISKDDPEVQFSWFVDDVEVHTAQTQPREEQFNSTFRSVSELPIMHQDWLNGKEFKCRVNSAAFPAPIEKTISKTKGRPKAPQVYTIPPCKEQMAKDKVSLWCMITDFFPEDITVEWQWNGQPAENYKNTQPIMDTDGSYFVYSKLNVQKSNWEAGNTFTCSVLHEGLHNHHTEKSLSHSPGK
# chain 2: EVQLLESGGGLVQPGGSLRLSCAASGFTFSSYGMHWVRQAPGKGLEWVAVISYDGSYKYYADSVKGRFTISRDNSKNTLYLQMNSLRAEDTAVYYCAAGVPDYWGQGTLVTVSSGGGGSGGGGSGGGGSQSVLTQPPSASGTPGQRVTISCSGSSSNIGSDYDVHWYQQLPGTAPKLLIYSNEERPSGVPDRFSGSKSGTSASLAISGLRSEDEADYYCSAWDSSLSGPVFGGGTKLTVLGGGGSGGGGSGGGGSGVECPPCPAPPVAGPSVFIFPPKPKDVLTITLTPKVTCVVVDISKDDPEVQFSWFVDDVEVHTAQTQPREEQFNSTFRSVSELPIMHQDWLNGKEFKCRVNSAAFPAPIEKTISKTKGRPKAPQVCTIPPPKEQMAKDKVSLSCAITDFFPEDITVEWQWNGQPAENYKNTQPIMDTDGSYFVVSKLNVQKSNWEAGNTFTCSVLHEGLHNHHTEKSLSHSPGK
# notes: scFv-kih-mIgG1; bispecific comprising CDRs of TPP-29528 and TPP-29519
# How the values were obtained:
# human IL-11 [1] = biological target: T1, human IL-11 (human, UniProt P20809 22-199); test: Di-complex ELISA, competitor canine IL11RA-Fc on coated IL-11; Di-complex ELISA (blocking of IL-11/IL-11Ra), weak partial inhibition, efficacy 17.4%
# T1 construct: Invigate, e.g. lot #C121021-19; biotinylated where coated in the ELISA; also called hIL-11; hIL11
# T1 sequence: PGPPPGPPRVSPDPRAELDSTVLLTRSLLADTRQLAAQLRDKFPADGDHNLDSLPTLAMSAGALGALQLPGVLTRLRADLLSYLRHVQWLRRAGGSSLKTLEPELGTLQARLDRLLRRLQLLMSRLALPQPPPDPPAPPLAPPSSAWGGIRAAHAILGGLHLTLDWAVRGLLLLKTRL
# Experimental: The assay is performed using streptavidin coated microtiter plates (Greiner bio-one, #781997). In a first step, 10 nM biotinylated mouse IL-11 (Invigate, Germany, e.g., lot #C210819-09) or human IL-11 (Invigate, Germany, e.g., lot #C121021-19) is coated in 25 μl PBS on the plate at 4° C. overnight. Next day, the plate is washed three times with 50 μl PBST and then blocked with 50 μl SmartBlock (Candor, #113125) for one hour at room temperature (RT). After additional three washes with PBST, 25 μl of a mixture of the murine anti IL-11 antibody and recombinant canine IL11RA-Fc fusion protein (Sino Biological, #70078-D02H) in PBS-T, 10% Smartblock are added simultaneously to the plate and incubated for one hour at RT. […] After three additional washes with PBS-T, 25 μl anti-human-POD (Sigma, #A0170) in PBS-T, 10% Smartblock is added and incubated for 1 hour at RT. After a final three washes with PBS-T, 25 μl AmplexRed (Fisher Scientific, A12222), 1/1000 in PBS, 0,003% H₂O₂, is added as substrate and incubated for 15 min at RT in the dark. Then, the fluorescence is measured with a plate reader at 535/595 nm. […] Efficacy was calculated as [(signal measured at lowest antibody concentration−signal measured at the highest antibody concentration)×100] divided by (signal measured at lowest antibody concentration−signal measured in the absence of IL11Ra). […]
# murine IL-11 = biological target: T2, murine IL-11 (mouse, UniProt P47873 22-199); test: Di-complex ELISA, competitor canine IL11RA-Fc on coated IL-11;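 for Efficacy (%): signal drop relative to signal at lowest antibody concentration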
# T2 construct: Invigate, e.g. lot #C210819-09; biotinylated where coated in the ELISA; also called mIL-11; mIL11
# T2 sequence: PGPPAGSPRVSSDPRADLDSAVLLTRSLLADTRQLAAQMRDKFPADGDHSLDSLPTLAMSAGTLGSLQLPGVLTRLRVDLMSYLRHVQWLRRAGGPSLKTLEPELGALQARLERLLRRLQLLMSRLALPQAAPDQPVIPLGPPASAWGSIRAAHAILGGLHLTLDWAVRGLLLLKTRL
# human IL-11 [2] = biological target: T3, human IL-11 (human, UniProt P20809 22-199); test: SPR (Biacore), 25 C, antibody captured via anti-Fc, IL-11 as analyte; SPR at 25 C
# T3 construct: Invigate recombinant protein; biotinylated when immobilized in the Di-complex ELISA; also called hIL11; hIL-11
# T3 sequence: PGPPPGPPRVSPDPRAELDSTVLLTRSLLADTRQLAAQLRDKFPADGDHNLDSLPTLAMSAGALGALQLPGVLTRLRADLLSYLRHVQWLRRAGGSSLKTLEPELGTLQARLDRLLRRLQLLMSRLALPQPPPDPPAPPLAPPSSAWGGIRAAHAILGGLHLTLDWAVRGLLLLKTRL
# [3] = biological target: T4, human IL-11 (Invigate, e.g., lot #C121021-19) (human, UniProt P20809 22-199); test: SPR, Biacore 8K; antibody captured on anti-human IgG Fc chip, IL-11 analyte 0-50 nM, 1:1 fit
# T4 construct: Bought protein; also called hIL-11; hIL11
# T4 sequence: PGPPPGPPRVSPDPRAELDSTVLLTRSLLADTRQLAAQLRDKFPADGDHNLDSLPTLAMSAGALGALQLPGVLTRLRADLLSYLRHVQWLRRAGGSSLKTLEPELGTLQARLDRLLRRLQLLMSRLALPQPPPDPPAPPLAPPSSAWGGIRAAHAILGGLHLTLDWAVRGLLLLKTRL
# [4] = biological target: T5, murine IL-11 (Invigate, e.g., lot #C210819-09) (mouse, UniProt P47873 22-199); test: as above
# T5 construct: Bought protein; biotinylated where captured on streptavidin plates; also called mIL-11; mIL11
# T5 sequence: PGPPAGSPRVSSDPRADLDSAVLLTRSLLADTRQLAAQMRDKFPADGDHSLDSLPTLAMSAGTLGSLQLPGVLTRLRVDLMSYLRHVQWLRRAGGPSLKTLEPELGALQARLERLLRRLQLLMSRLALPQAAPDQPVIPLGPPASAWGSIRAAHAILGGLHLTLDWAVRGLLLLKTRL
# human IL-11 [5] = biological target: T3, human IL-11; test: Di-complex ELISA, canine IL11RA-hFc binding to immobilized hIL-11, competition
# Experimental: In the Di-complex ELISA format anti IL-11 antibodies are tested for the ability to interfere with the formation of complexes consisting of immobilized murine IL-11 (Invigate, e.g., lot #C210819-09) or human IL-11 (Invigate, e.g., lot #C121021-19), and murine IL11RA-Fc fusion proteins or canine IL11RA-human-Fc fusion protein (FIG. 17a, b).
# Bispecific antibodies were subjected to the experimental assay procedure described in Example 18 and IC50 [M], respectively efficacy (%) were calculated accordingly.
binder,measurement,setting,value
B1,IC50,human IL-11 [1],12 nM
same,Efficacy (%),murine IL-11,64.2%
same,IC50,murine IL-11,2.9 nM
B2,Kd,human IL-11 [2],25 nM
B3,Kd,[3],5.2 nM
same,Kd,[4],12 nM
B4,IC50,human IL-11 [5],1.7 nM
